Measured values published in IntAct's records for PubMed 26751641.

How the values were obtained:
chd1_human CHD1 [1] = biological target: chd1_human CHD1 (UniProt O14646)
chd1_human CHD1 [2] = biological target: chd1_human CHD1 (UniProt O14646); remark: listed apart in the source

UniProt O14646, sequence (O14646 whole entry): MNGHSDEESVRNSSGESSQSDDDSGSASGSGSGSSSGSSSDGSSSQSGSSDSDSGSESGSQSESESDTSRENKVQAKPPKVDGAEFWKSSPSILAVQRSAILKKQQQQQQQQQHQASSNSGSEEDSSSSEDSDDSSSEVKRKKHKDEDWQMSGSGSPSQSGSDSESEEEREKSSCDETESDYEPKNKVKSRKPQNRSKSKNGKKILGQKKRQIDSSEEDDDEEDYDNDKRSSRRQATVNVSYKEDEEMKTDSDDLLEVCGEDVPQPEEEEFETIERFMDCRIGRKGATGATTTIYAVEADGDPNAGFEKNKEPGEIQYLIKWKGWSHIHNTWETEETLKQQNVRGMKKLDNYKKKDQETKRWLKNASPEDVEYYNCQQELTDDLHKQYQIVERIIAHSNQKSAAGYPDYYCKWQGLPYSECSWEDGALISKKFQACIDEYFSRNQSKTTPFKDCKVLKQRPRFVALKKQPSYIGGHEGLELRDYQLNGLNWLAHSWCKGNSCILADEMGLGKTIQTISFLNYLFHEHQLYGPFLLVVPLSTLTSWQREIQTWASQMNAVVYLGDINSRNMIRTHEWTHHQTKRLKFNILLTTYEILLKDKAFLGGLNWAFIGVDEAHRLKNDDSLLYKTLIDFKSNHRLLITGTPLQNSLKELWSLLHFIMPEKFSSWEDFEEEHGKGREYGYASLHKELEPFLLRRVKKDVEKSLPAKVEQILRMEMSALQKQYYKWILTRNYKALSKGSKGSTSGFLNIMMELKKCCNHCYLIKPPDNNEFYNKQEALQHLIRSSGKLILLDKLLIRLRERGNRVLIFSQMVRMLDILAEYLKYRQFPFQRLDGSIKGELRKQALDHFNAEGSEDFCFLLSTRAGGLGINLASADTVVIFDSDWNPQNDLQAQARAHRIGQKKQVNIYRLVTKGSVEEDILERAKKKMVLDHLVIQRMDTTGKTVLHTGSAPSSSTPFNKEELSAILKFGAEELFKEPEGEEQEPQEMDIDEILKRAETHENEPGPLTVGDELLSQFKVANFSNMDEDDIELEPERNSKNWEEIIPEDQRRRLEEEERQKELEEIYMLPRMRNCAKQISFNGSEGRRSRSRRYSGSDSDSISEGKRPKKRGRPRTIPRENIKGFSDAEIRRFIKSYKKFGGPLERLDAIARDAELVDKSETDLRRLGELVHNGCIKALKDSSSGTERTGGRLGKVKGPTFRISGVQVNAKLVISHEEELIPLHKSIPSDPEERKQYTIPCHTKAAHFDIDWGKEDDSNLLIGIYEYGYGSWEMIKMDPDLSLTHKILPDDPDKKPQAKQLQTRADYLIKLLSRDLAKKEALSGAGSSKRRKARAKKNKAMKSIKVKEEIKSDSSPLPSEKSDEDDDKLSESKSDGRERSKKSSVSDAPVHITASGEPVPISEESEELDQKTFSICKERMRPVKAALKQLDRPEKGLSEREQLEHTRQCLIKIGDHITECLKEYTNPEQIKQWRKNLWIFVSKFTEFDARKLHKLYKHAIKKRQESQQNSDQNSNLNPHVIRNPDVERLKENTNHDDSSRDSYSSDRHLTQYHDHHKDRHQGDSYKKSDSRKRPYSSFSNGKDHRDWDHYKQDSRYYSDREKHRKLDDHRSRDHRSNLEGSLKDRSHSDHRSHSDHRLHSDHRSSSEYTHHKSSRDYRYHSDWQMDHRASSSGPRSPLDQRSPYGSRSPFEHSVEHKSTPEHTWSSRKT

“Lysine-specific histone demethylase 1A (Homo sapiens) (from UniProt O60341-1) K114A” was tested, and the “effect of a mutation on the interaction” value (chd1_human CHD1 [1]) was “disrupting interaction strength”.
With “Lysine-specific histone demethylase 1A (Homo sapiens) (from UniProt O60341-1) R113A” the “effect of a mutation on the interaction” value (chd1_human CHD1 [2]) was “disrupting interaction strength”.
